First the molecules themselves.
B1: Azoarcus group I ribozyme (parent)
chain: GUGCCUUGCGCCGGGAAACCACGCAAGGGAUGGUGUCAAAUUCGGCGAAACCUAAGCGCCCGCCCGGGCGUAUGGCAACGCCGAGCCAAGCUUCGGCGCCUGCGCCGAUGAAGGUGUAGAGACUAGACGGCACCCACCUAAGGCAAACGCUAUGGUGAAGGCAUAGUCCAGGGAGUGGCGAAAGUCACACAAACCGG

In this series the parent is B1. In words: reverse-splicing fitness (ratio to wild type); higher = more active; in vitro selection; Mg2+ level not given. A digest of the protocol: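 An in vitro group I ribozyme library with randomized positions was T7-transcribed and gel-purified. In triplicate, 10 pmol RNA in EPPS pH 7.5 was reacted with 50 pmoles of a 30-nt RNA substrate for 1 h at 37 °C across several added MgCl2 levels (1–48 mM), then stopped with EDTA. Products were reverse transcribed from a substrate-complementary primer, PCR-amplified and sequenced (HiSeq 4000). Fitness is a variant's read proportion after selection over that before, normalised to wild type.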
As to A111C C150G C169A U176G, the reverse-splicing fitness was 0.00532.

As for C82G A111U C150U C169G U176G, the reverse-splicing fitness was found to be 0.00689.

Consider A111C C150U C169G U176G, for which the reverse-splicing fitness came out at 0.0072. As for A111C A145U U176A, the figure is 0.424; as for C82U A111G A145U C150U U176C, 0.172.

For C82G A111G A120G A145G C150U C169A U176A, the reverse-splicing fitness was 0.0163. For C82A A111C A120G A145G C169U, the reverse-splicing fitness came out at 0.00908. Regarding A120G C169G, the reverse-splicing fitness was 0.64. For C82U A120G C150U C169U U176A, the reverse-splicing fitness was determined as 0.0237. To C82U A111C A120G C150G U176C belongs 0.013.

As to C82G A111U A120C A145C C150A C169G U176A, the reverse-splicing fitness amounted to 0.0314. To C82A A111C A120G A145C C150G C169U U176G belongs 0.00551. As to A111U A120U C150A U176A, the reverse-splicing fitness stood at 0.0294. As to A111G A120C A145C C150U C169A, the reverse-splicing fitness was determined as 0.00825.

As to C82A A111C A145G C150U C169U U176G, the reverse-splicing fitness is 0.00766.

As for A111C A120C A145C C150G C169U U176G, the reverse-splicing fitness turned out to be 0.0054. Turning to A111G A120C C150A C169A U176C, the reverse-splicing fitness is 0.0167. To C82A A120U A145G C150G C169A U176G belongs 0.00515; to C82G A111G A120C C169G U176G, 0.00531; to C82U A145C C150G U176C, 0.0583. As to C82A A120G C169A U176G, the reverse-splicing fitness is 0.00374. Regarding C82A A145U C150U C169G U176A, the reverse-splicing fitness turned out to be 0.0124. Regarding C82U A111C A120U C169G U176A, the reverse-splicing fitness came to 0.0032. On to C82G A111G A120C A145U C150A U176A, for which the reverse-splicing fitness turned out to be 0.0132.

Consider C82G A111C A145C C150A C169U U176G, for which the reverse-splicing fitness came to 0.0092. For A111U A145G C169A U176C, the reverse-splicing fitness is 0.0305.

Turning to C82G A111C A120U A145C C150G U176G, the reverse-splicing fitness was found to be 0.00221. Turning to A111C A120U A145U C150G C169U U176G, the reverse-splicing fitness is 0.00279. Consider C82G A111U A145G C150U U176A, for which the reverse-splicing fitness was found to be 0.144. Regarding A111G A120C C150U C169A U176A, the reverse-splicing fitness was determined as 0.0182. For the variant C82U A111U A120G C150A C169U U176C, the reverse-splicing fitness stood at 0.0171. To C82G A111C A120G A145U C150G U176C belongs 0.015.

In the case of A111G A120G C150U C169G U176A, the reverse-splicing fitness came out at 0.0529. Consider C82U A111U A120G A145G C150G C169A, for which the reverse-splicing fitness came to 0.00888. Take C82U A111G C150U C169U: the reverse-splicing fitness came to 0.0108. For A145G C150U, the reverse-splicing fitness was 0.93. Regarding C82G A120G A145C C150U, the reverse-splicing fitness was found to be 0.0111. As for A120U A145G C169A U176G, the reverse-splicing fitness worked out at 0.00148. With C82U A111C A120C A145G C150A U176A, the reverse-splicing fitness stood at 0.00976. With C82A A111C A120G U176A, the reverse-splicing fitness was 0.0144. As to C82U A111U A120C A145U C169U U176G, the reverse-splicing fitness came out at 0.00395.

Consider C82A A111U A120C A145G C150A C169U, for which the reverse-splicing fitness stood at 0.0104. On to C82U C169G, for which the reverse-splicing fitness was 0.00984. As for A111U A120U A145C C150A U176A, the figure is 0.012.

For the variant A111G A120U A145U C150G C169A, the reverse-splicing fitness came to 0.00344.

With C82G A111U A120U A145C C150U C169A U176C, the reverse-splicing fitness worked out at 0.0022. To A120C A145U C169G U176G belongs 0.0038; to C82U A120G C150U C169A U176A, 0.016; to C82A A120C C150U C169U U176G, 0.00589.

For C82A A111G A120G A145G C150G C169A U176C, the reverse-splicing fitness came out at 0.0131. Take A111G A120G A145G C169A: the reverse-splicing fitness was determined as 0.188. For the variant A111U A120U A145U C169A U176G, the reverse-splicing fitness came to 0.00231. Turning to A111C A120G C169G U176C, the reverse-splicing fitness came to 0.0444. As for A111G A120U A145C C150U C169A, the reverse-splicing fitness is 0.0024. As for C82G C150G C169U U176A, the figure is 0.00858; as for C82U A120C A145U C169A U176A, 0.00753. Take C82G A111G A120U A145G C169U U176C: the reverse-splicing fitness came out at 0.00485. As for C82A A111U A120C A145C C150G C169G U176A, the reverse-splicing fitness turned out to be 0.0109. Take C82G A111U A120U C150G: the reverse-splicing fitness amounted to 0.00761.

As for C82G A111U A120C A145C C150U C169G U176A, the reverse-splicing fitness stood at 0.0279.

For C82A A111U A120G A145C C150U C169U U176C, the reverse-splicing fitness was found to be 0.0127. For C82A A111U A120U C169A U176A, the reverse-splicing fitness is 0.00348.

For the variant C82A A120G A145G C150U C169U U176A, the reverse-splicing fitness was found to be 0.0182. With C82U A111C A120C A145C C169G U176A, the reverse-splicing fitness came to 0.0195. Regarding C82U A111C A145C C169A U176C, the reverse-splicing fitness stood at 0.00939. For C82G A111U A120U C150G U176C, the reverse-splicing fitness worked out at 0.00683.

C82G A111G A120G C150U: the reverse-splicing fitness is 0.0156. As for C82U A111U A120C A145C C150A C169G U176A, the figure is 0.0195; as for C82A A111C A120G A145G C169G U176A, 0.0211; as for C82A A111C C150U C169A U176G, 0.00801. In the case of C82G A111C A145U U176G, the reverse-splicing fitness was 0.0645. To C82G A145G C150A belongs 0.0607; to C82G A111C A120C A145U C150U C169U U176C, 0.0153; to A111C A120U A145U C150U C169A, 0.00426. On to A111G A145G C150G C169A U176A, for which the reverse-splicing fitness was determined as 0.0122.

For A120U A145U C169U U176C, the reverse-splicing fitness stood at 0.133. As for C82G A111G A120G A145U C150A C169G U176A, the reverse-splicing fitness was 0.017. Consider C82G A111G A120G A145U C150A C169G U176C, for which the reverse-splicing fitness was determined as 0.0174. On to C82A A111G A120U U176A, for which the reverse-splicing fitness amounted to 0.0096. With C82G A120G A145U C150G C169G U176A, the reverse-splicing fitness is 0.00742.

Consider C82G A120G A145U U176C, for which the reverse-splicing fitness came out at 0.0191. As to C82G A111G A120U A145G C150A C169G U176C, the reverse-splicing fitness worked out at 0.00625. As for A111U A120U A145U C150U U176A, the reverse-splicing fitness was determined as 0.16.

(Values after the RNAGym collection of RNA variant scans (doi:10.1093/molbev/msab373).)
